Source: US7208574 (UNIVERSITY OF BRITISH COLUMBIA, dated 2007)

Molecular target: T1, β1 integrins (UniProt P05556 21-798)
T1 construct: Endogenous protein of the epithelial membrane extract; also called beta 1 integrins
Assay: gel overlay with HeLa membrane extract

T1 sequence (P05556 21-798): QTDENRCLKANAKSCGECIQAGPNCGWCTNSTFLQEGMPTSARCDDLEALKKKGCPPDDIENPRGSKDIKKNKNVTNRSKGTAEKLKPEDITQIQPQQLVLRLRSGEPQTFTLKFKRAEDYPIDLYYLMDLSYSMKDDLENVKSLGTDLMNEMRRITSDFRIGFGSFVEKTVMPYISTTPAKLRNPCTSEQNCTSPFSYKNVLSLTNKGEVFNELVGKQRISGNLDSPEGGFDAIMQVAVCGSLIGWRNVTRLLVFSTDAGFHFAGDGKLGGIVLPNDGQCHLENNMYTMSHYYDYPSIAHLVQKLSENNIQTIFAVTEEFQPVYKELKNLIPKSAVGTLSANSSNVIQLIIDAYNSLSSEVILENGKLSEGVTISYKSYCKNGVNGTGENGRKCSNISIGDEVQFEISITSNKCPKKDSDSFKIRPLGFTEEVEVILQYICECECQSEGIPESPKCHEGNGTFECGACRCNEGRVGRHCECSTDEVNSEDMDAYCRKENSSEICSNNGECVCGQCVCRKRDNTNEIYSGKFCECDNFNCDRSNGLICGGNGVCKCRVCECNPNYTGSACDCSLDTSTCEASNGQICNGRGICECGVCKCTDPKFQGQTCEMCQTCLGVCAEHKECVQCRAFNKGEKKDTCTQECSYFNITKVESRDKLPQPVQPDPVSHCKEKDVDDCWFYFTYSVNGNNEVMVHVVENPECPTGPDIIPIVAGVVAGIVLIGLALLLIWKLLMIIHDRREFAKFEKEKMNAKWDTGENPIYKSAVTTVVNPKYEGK

B1: His-T7Int fusion protein (other)
chain: ITEIKADKTTAVANGQDAITYTVKVMKGDKPVSNQEVTFTTTLGKLSNSTEKTDTNGYAKVTLTSTTPGKSLVSARVSDVAVDVKAPEVEFFTTLTIDDGNIEIVGTGVKGKLPTVWLQYGQVNLKASGGNGKYTWRSANPAIASVDASSGQVTLKEKGTTTISVISSDNQTATYTIATPNSLIVPNMSKRVTYNDAVNTCKNFGGKLPSSQNELENVFKAWGAANKYEYYKSSQTIISWVQQTAQDAKSGVASTYDLVKQNPLNNIKASESNAYATCVK
notes: domain: 280 C-terminal residues of intimin; Purified on an agarose-nickel column; also called His-T7Intimin; His-T7Int peptide
B1: no binding.
